In patent publication EP4011904A1 (Bayer Aktiengesellschaft, dated 2022):
Positions of bridges follow the written chain, without caps; N, C: chain ends.

Key:
Assay in all cases: cell-based or functional assay
[1] = molecular target: T1, recombinant human MASP1 (amino acids 297-699, C-terminal His Tag) (human, UniProt P48740 297-699)
T1 sequence: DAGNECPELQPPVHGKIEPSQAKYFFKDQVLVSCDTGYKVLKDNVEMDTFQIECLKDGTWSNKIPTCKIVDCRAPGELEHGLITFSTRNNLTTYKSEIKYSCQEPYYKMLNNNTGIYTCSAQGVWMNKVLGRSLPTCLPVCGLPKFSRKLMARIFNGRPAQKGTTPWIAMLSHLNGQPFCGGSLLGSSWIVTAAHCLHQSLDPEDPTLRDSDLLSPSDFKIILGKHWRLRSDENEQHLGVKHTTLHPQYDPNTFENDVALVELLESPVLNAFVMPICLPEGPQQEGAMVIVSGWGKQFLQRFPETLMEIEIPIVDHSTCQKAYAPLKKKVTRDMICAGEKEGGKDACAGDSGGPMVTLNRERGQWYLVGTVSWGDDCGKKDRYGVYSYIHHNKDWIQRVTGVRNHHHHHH

[2] = molecular target: recombinant human MASP2 (amino acids 297-686, C-terminal His Tag) (human, UniProt O00187 297-686)
[3] = molecular target: T2, recombinant rat MASP1 (amino acids 302-704, C-terminal His Tag) (rat, UniProt Q8CHN8 302-704)
T2 sequence: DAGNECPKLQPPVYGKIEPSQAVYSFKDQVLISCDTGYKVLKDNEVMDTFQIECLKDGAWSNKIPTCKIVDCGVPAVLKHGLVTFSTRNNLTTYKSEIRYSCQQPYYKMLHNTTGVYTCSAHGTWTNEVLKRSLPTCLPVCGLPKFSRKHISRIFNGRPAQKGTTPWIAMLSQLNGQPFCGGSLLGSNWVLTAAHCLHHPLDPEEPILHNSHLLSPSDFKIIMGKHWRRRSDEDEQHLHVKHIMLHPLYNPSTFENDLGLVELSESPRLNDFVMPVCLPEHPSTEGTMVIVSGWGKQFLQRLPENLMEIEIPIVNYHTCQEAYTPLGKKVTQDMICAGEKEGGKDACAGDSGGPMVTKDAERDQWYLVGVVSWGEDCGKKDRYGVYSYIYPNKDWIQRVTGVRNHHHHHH

[4] = molecular target: recombinant rat MASP2 (amino acids 296-685, C-terminal His Tag) (rat, UniProt Q9JJS8 296-685)
Chain of recombinant rat MASP2 (amino acids 296-685, C-terminal His Tag) (Q9JJS8 other isoform, or with tags, fused parts or gaps limits assumed, form in doubt): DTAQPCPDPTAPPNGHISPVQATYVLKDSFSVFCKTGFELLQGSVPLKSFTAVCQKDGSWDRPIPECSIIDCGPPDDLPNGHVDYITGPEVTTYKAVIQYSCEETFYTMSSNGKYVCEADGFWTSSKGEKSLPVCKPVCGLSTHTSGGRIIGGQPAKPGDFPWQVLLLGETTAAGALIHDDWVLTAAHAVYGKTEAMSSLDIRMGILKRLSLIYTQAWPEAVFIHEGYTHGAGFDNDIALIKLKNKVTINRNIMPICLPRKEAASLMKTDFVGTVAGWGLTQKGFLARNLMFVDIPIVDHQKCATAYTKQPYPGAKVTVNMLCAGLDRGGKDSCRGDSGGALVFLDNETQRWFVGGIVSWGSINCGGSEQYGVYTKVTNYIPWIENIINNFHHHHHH

Chain of recombinant human MASP2 (amino acids 297-686, C-terminal His Tag) (O00187 other isoform, or with tags, fused parts or gaps limits assumed, form in doubt): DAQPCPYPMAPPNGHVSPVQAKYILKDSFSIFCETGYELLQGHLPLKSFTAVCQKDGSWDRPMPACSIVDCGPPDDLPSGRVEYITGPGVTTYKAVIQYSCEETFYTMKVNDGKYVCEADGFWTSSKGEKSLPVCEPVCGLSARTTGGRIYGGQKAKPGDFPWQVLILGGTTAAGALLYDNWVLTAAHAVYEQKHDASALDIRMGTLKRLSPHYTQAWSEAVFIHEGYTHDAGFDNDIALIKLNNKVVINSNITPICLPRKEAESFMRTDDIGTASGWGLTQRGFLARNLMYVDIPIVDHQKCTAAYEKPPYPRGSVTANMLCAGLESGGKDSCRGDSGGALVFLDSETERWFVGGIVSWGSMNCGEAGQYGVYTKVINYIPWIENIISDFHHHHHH

cyclo(GRCTKSIPPICFPD) (disulfide 3-11; also: TFA salt) [Bicyclic SFTI-1: G**RC+TKSIPPIC+FPD**]
human MASP1 IC50 [1]: > 3000 nM | human MASP2 IC50 [2]: > 3000 nM | rat MASP1 IC50 [3]: 1000 nM | rat MASP2 IC50 [4]: 1000 nM
